According to PMC3724782, “The LDL Receptor-Related Protein 1 (LRP1) Regulates the PDGF Signaling Pathway by Binding the Protein Phosphatase SHP-2 and Modulating SHP-2- Mediated PDGF Signaling Events” (PLoS ONE, 2013):
Where two headings read alike, the source gives them in different places. Each block holds one molecule with its values, some of them ahead of it.

Biological target: T1, recombinant human SHP-2 (human, UniProt Q06124 1-593)
T1 construct: SHP-2, protein tyrosine phosphatase with two SH2 domains, human, recombinant; The supplier is named only in the SPR methods; source: bought: R&D Systems, 1894-SH-100
T1 sequence (looked up): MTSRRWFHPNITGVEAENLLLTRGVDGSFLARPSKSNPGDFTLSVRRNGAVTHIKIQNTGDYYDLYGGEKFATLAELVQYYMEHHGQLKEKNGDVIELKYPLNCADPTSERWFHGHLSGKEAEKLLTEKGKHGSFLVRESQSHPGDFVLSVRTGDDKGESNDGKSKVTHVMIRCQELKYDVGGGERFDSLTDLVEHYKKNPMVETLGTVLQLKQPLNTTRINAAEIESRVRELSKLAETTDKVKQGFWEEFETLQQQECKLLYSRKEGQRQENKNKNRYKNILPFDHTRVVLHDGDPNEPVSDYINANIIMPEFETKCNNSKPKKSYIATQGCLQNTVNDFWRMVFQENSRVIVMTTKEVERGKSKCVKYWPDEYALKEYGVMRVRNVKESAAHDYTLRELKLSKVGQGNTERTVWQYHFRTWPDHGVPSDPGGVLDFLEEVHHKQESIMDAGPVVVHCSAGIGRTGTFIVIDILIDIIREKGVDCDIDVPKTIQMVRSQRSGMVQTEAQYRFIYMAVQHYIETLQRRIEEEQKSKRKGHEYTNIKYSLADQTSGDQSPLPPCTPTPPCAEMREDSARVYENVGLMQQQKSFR
Assay: ELISA; wells coated with SHP-2 (5 µg/mL, TBS pH 8) or BSA; GST:LRP1-ICD or PDGFRβ KD titrated in TBS, 0.5% BSA, 0.05% Tween 20, sodium orthovanadate, overnight at 4°C; detected with anti-GST or anti-PDGFRβ antibody; fit to a single class of sites

Kd: 18 nM
Molecule: phosphorylated GST:LRP1-ICD (LDL receptor-related protein 1 intracellular domain fused to glutathione S-transferase, tyrosine-phosphorylated) (domain or fragment)

Kd (both partners purified): 7.8 ± 1 nM
B1: phosphorylated PDGFRβ kinase domain (domain or fragment, UniProt P09619 558-1106, looked up)
chain: KKPRYEIRWKVIESVSSDGHEYIYVDPMQLPYDSTWELPRDQLVLGRTLGSGAFGQVVEATAHGLSHSQATMKVAVKMLKSTARSSEKQALMSELKIMSHLGPHLNVVNLLGACTKGGPIYIITEYCRYGDLVDYLHRNKHTFLQHHSDKRRPPSAELYSNALPVGLPLPSHVSLTGESDGGYMDMSKDESVDYVPMLDMKGDVKYADIESSNYMAPYDNYVPSAPERTCRATLINESPVLSYMDLVGFSYQVANGMEFLASKNCVHRDLAARNVLICEGKLVKICDFGLARDIMRDSNYISKGSTFLPLKWMAPESIFNSLYTTLSDVWSFGILLWEIFTLGGTPYPELPMNEQFYNAIKRGYRMAQPAHASDEIYEIMQKCWEEKFEIRPPFSQLVLLLERLLGEGYKKKYQQVDEEFLRSDHPAILRSQARLPGFHGLRSPLDTSSVLYTAVQPNEGDNDYIIPLPDPKPEVADEGPLEGSPSLASSTLNEVNTSSTISCDSPLEPQDEPEPEPQLELQVEPEPELEQLPDSGCPAPRAEAEDSFL
modifications: phosphotyrosine (autophosphorylated with ATP and MgCl2; sites not mapped here)
notes: PDGF receptor β (PDGFRβ), kinase domain (KD); as far as I recall the product is a tagged human cytoplasmic fragment reaching to the C-terminus, to be checked with the supplier; also called pPDGFRβ KD; phospho-PDGFRβ KD; source: bought: Millipore (14-463); phosphorylated by incubating the protein with 1 mM ATP and 1 mM MgCl2

Kd (both partners purified): 326 ± 68 nM
B2: unphosphorylated PDGFRβ kinase domain (domain or fragment, UniProt P09619 558-1106, looked up)
chain: B1 chain
notes: PDGF receptor β (PDGFRβ), kinase domain (KD); also called PDGFRβ KD; non-phosphorylated PDGFRβ KD; source: bought: Millipore (14-463)
